The values below come from patent US8299097B2, “Methods for treating inflammatory disorders” (The Brigham and Women's Hospital, Inc., priority 2008, dated 2012).

In assay [1] the test system is LAD2 cells. The assay can be described thus: ERK activation in LAD2 cells with apyrase. It counts as cell-based, human. To be noted: LTE4 500 nM, 15 minutes. How it is done: (§1) FIG. 9. Effect of apyrase treatment on LT-mediated activation of LAD2 cells. 9A. […] Concentrations of MIP-1β were measured by ELISA. 9B. […] Lysates were resolved by SDS-PAGE and probed with the indicated antibodies against phospho- and total ERK. Results in 9A are the mean±½ range from two experiments, while 9B is representative of two experiments.
(§2) Pre-treatment of the LAD2 cells with 2-MesAMP blocked the LTE4-mediated increment in MIP-1β production by >50% (FIG. 2B). […] To exclude potential off-target effects of the inhibitors, samples of LAD2 cells were transfected with lentiviruses encoding a P2Y12 sequence-specific shRNA, a CysLT1R-specific shRNA, or an empty vector control before stimulation. […] LTE4- and LTD4-dependent production of PGD2 were abrogated by the knockdowns of P2Y12 and CysLT1R, respectively (FIG. 2C, bottom). Neither GPCR knockdown altered MIP-1β generation or PGD2 production in response to IgE-anti-IgE (FIG. 2C). LTE4-mediated MIP-1β generation (FIG. 9A) and ERK activation (FIG. 9B) were not altered by treatment of LAD2 cells with apyrase to degrade extracellular ADP.
After stimulation with the respective agonists, LAD2 cells and hMCs (0.5×10^6) were lysed with lysis buffer (BD Bioscience) supplemented with protease inhibitor cocktail (Roche) and sodium vanadate (1 mM). Lysates were subjected to 4-12% SDS-PAGE and transferred to PVDF membranes. […]

For assay [2], the system named is LAD2 cells. Briefly: MIP-1β generation by LAD2 cells (ELISA). Format: cell-based, human. Conditions: apyrase 10 μM, LTE4 500 nM, 6 h. How it is done:
FIG. 2. Requirement for P2Y12 receptors in LTE4-mediated LAD2 cell activation. 2A. Calcium flux of LAD2 cells stimulated with the indicated agonists (500 nM) in the presence or absence of the P2Y12 receptor-selective antagonist 2-MeSAMP (100 μM). […] 2B. […] Cells sensitized overnight with IgE and challenged with anti-IgE were used as the positive control. 2C. […] Results in 2B and 2C are mean±SEM from three independent experiments each. 2D. Effect of shRNA-mediated knockdown of P2Y12 receptor mRNA expression by LAD2 cells.
as §1, §2
The concentration of MIP-1β was measured by an ELISA (ENDOGEN®). PGD2 was quantitated by a PGD2-methoxylamine hydrochloride (PGD2-MOX) assay.
Background: In an ELISA, binding on a coated surface is turned into a signal by an enzyme label.

Another assay concerns the target human P2Y12 (Homo sapiens, UniProt Q9H244). Briefly: ERK activation (phosphorylation immunoblot) in P2Y12-expressing CHO cells. It counts as cell-based. Conditions: 2-MesAMP 100 μM, MK571 1 μM. On the set-up: polyhistidine (HIS) tag (C); expressed in transfected cells. The procedure: FIG. 1. Activation by recombinant human P2Y12 receptors in response to cys-LTs. The human P2Y12 receptor cDNA was cloned in forward and reverse orientation into the expression vector pEF1/His B and transfected into CHO cells using Fugene HD reagent. Stably-expressing clones were selected using G418 (1000 μg/ml), and expression of the construct was confirmed by cytofluorographic detection of the HIS tag. 1A. […] Results in second experiment were identical. 1B. SDS-PAGE immunoblots showing phosphorylation of ERK2 by CHO cells stably expressing human P2Y12 receptors in reverse (negative control) or forward orientations. […] The blots were stripped and re-probed with an antibody (Ab) recognizing total ERK1 and ERK2. […] 1C. Effect of the selective P2Y12 receptor antagonist 2-MesAMP (MeS) on ligand-induced ERK phosphorylation. P2Y12 receptor expressing CHO cells were stimulated with the same doses of agonists used in 1A, in the absence or presence of 2-MesAMP (100 μM). 1D. Comparison of P2Y12 receptor-mediated responses to cys-LTs with those of recombinant human CysLT1R and CysLT2R expressed in CHO cells, and the effect of the CysLT1R antagonist MK571 (1 μM). Data in 1B-1D are from individual experiments that were repeated at least 3 times with similar results.
FIG. 8. […] Cells were stably transfected with the human P2Y12 construct and stimulated for 15 minutes with the indicated ligand concentrations. […] Results in a second experiment were similar.
A P2Y12 receptor cDNA was amplified by reverse transcriptase polymerase chain reaction (RT-PCR) from RNA extracted from primary hMCs and cloned into a mammalian expression vector. Expression was confirmed by detection of a histidine (HIS) tag by flow cytometry. Another cohort of CHO cells were stably transfected with a P2Y12 receptor construct in reverse orientation as a negative control. […] The cys-LT-induced ERK activation blocked by pre-treatment of the cells with pertussis toxin (PTX), was attenuated by treatment with the P2Y12 receptor-selective antagonist 2-methylthioadenosine monophosphate (2-MesAMP) (FIG. 1C), and was resistant to MK571, an inhibitor that blocks CysLT1R and some P2Y receptors (Mamedova, L., et al. 2005. Biochem. Pharmacol. 71:115-125). […] These responses were resistant to PTX and 2-MesAMP, and susceptible to MK571 in the case of the CysLT1R transfectants.
A human P2Y12 receptor cDNA was amplified by 30 cycles of PCR from reverse-transcribed total RNA extracted from primary cord blood hMCs. The primer sequences were 5′-[…] (SEQ ID NO: 1) and 3′-[…] (SEQ ID NO: 2). The fragment was cloned into a TA vector (INVITROGEN™). After verifying the nucleotide sequence, the fragment was subcloned into the multiple cloning site of the expression vector pEF1/His B, encoding a C-terminal polyhistidine (HIS) tag. […]
A general note: A western blot detects proteins with antibodies after separation by electrophoresis.

A further assay has as its target T1, human CysLT2R (Homo sapiens, UniProt Q9NS75).
T1 construct: expressed in transfected cells
T1 sequence (Q9NS75 1-346): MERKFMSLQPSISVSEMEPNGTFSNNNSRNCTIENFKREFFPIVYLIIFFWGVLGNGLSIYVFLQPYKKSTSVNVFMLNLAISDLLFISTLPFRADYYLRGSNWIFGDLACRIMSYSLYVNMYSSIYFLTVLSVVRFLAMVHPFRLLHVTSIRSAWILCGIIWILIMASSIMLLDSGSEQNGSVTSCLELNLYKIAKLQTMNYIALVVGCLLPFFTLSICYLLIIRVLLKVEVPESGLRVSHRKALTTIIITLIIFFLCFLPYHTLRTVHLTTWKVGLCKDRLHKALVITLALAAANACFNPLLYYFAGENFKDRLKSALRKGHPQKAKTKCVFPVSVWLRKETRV
The assay can be described thus: ERK activation in CysLT2R CHO transfectants. Format: cell-based. How it is done:
(§3) FIG. 1. Activation by recombinant human P2Y12 receptors in response to cys-LTs. The human P2Y12 receptor cDNA was cloned in forward and reverse orientation into the expression vector pEF1/His B and transfected into CHO cells using Fugene HD reagent. Stably-expressing clones were selected using G418 (1000 μg/ml), and expression of the construct was confirmed by cytofluorographic detection of the HIS tag. 1A. […] 1B. SDS-PAGE immunoblots showing phosphorylation of ERK2 by CHO cells stably expressing human P2Y12 receptors in reverse (negative control) or forward orientations. […] The blots were stripped and re-probed with an antibody (Ab) recognizing total ERK1 and ERK2. […] 1C. Effect of the selective P2Y12 receptor antagonist 2-MesAMP (MeS) on ligand-induced ERK phosphorylation. P2Y12 receptor expressing CHO cells were stimulated with the same doses of agonists used in 1A, in the absence or presence of 2-MesAMP (100 μM). 1D. Comparison of P2Y12 receptor-mediated responses to cys-LTs with those of recombinant human CysLT1R and CysLT2R expressed in CHO cells, and the effect of the CysLT1R antagonist MK571 (1 μM).
(§4) A P2Y12 receptor cDNA was amplified by reverse transcriptase polymerase chain reaction (RT-PCR) from RNA extracted from primary hMCs and cloned into a mammalian expression vector. Expression was confirmed by detection of a histidine (HIS) tag by flow cytometry. […]

For another assay, the target named is T2, human CysLT1R (Homo sapiens, UniProt Q9Y271).
T2 construct: expressed in transfected cells
T2 sequence (Q9Y271 1-337): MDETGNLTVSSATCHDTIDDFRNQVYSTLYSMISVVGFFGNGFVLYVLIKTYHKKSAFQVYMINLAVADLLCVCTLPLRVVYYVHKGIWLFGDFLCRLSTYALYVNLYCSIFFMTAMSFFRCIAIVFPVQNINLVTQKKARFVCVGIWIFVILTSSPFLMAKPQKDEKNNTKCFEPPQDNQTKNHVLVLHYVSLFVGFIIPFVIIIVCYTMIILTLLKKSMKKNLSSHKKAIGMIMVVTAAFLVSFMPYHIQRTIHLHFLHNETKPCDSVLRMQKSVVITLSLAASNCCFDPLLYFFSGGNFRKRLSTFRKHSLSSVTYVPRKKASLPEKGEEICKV
The assay can be described thus: ERK activation in CysLT1R CHO transfectants. Format: cell-based. How it is done: as §3, §4

Sequence of human P2Y12 (Q9H244 whole entry): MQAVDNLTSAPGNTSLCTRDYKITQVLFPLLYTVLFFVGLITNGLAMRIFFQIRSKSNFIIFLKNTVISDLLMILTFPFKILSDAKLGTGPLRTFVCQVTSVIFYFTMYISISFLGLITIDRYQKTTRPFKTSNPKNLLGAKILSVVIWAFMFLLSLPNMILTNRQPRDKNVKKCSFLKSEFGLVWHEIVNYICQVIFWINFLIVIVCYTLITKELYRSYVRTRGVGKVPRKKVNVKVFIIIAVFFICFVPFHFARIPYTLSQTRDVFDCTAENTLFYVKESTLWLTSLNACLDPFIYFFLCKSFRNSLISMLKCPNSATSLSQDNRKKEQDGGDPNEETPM

Take apyrase: the “effect on LTE4-mediated ERK activation” value in the assay with LAD2 cells [1] is “not altered”. Moreover, the “effect on LTE4-mediated MIP-1β generation” value in the assay on LAD2 cells [2] is reported as “not altered”.
Consider pertussis toxin, for which the entries for the “effect on cys-LT-induced ERK activation” value in the assay with human P2Y12, in the assay with human CysLT2R and with human CysLT1R were “blocked”, “resistant” and “resistant”, respectively.
